Results taken from FireProtDB (doi:10.1002/prot.340090203).
Where “and” joins values, the source holds several entries; their conditions need not be identical. Equal values may be shown once.

B1: Tryptophan synthase alpha chain, P0A877 (parent)
chain: MERYESLFAQLKERKEGAFVPFVTLGDPGIEQSLKIIDTLIEAGADALELGIPFSDPLADGPTIQNATLRAFAAGVTPAQCFEMLALIRQKHPTIPIGLLMYANLVFNKGIDEFYAQCEKVGVDSVLVADVPVEESAPFRQAALRHNVAPIFICPPNADDDLLRQIASYGRGYTYLLSRAGVTGAENRAALPLNHLVAKLKEYNAAPPLQGFGISAPDQVKAAIDAGAAGAISGSAIVKIIEQHINEPEKMLAALKVFVQPMKAATRS

Variants of: B1
Settings: Escherichia coli (strain K12), reversible: yes, structure 1WQ5, whole UniProt chain shown
[1] = pH 7, 25 °C, GdnHCl, CD, Potassium phosphate 10 mM
[2] = pH 7, 25 °C, GdnHCl, CD, Potassium phosphate 10 mM, transition: 3
[3] = pH 9, Thermal, DSC, Sodium tetraborate 1 mM
[4] = pH 9, 54.1 °C, Thermal, DSC, Sodium tetraborate 1 mM, EDTA 1 mM

Variant | ddG of mutation (higher = less stable) [1] [kcal/mol] | unfolding free energy [1] [kcal/mol] | ddG of mutation (higher = less stable) [2] [kcal/mol] | unfolding free energy [2] | Tm [3] [°C] | change of melting temperature, mutant - wild type (higher = more stable) [3] [°C] | heat capacity change of unfolding [3] [kcal/mol/K] | unfolding enthalpy (calorimetric) [3] [kcal/mol] | ddG of mutation (higher = less stable) [4] [kcal/mol] | heat capacity change of unfolding [4] [kcal/mol/K]
MERYESLFAQLKERKEGAFVPFVTLGDPGIEQSLKIIDTLIEAGADALELGIPFSDPLADGPTIQNATLRAFAAGVTPAQCFEMLALIRQKHPTIPIGLLMYANLVFNKGIDEFYAQCEKVGVDSVLVADVPVEESAPFRQAALRHNVAPIFICPPNADDDLLRQIASYGRGYTYLLSRAGVTGAENRAALPLNHLVAKLKEYNAAAPLQGFGISAPDQVKAAIDAGAAGAISGSAIVKIIEQHINEPEKMLAALKVFVQPMKAATRS [P207A] | 1.8 | 7 | 2.2 | 2.4 kcal/mol | 47.4 | -6.7 | 4.9 | 95 |  | 
MERYESLFAQLKERKEGAFVPFVTLGDGGIEQSLKIIDTLIEAGADALELGIPFSDPLADGPTIQNATLRAFAAGVTPAQCFEMLALIRQKHPTIPIGLLMYANLVFNKGIDEFYAQCEKVGVDSVLVADVPVEESAPFRQAALRHNVAPIFICPPNADDDLLRQIASYGRGYTYLLSRAGVTGAENRAALPLNHLVAKLKEYNAAPPLQGFGISAPDQVKAAIDAGAAGAISGSAIVKIIEQHINEPEKMLAALKVFVQPMKAATRS [P28G] | 1.6 | 7.2 |  | 2.3 kcal/mol and 4.9 kcal/mol |  |  |  |  |  | 
MERYESLFAQLKERKEGAFVPFVTLGDAGIEQSLKIIDTLIEAGADALELGIPFSDPLADGPTIQNATLRAFAAGVTPAQCFEMLALIRQKHPTIPIGLLMYANLVFNKGIDEFYAQCEKVGVDSVLVADVPVEESAPFRQAALRHNVAPIFICPPNADDDLLRQIASYGRGYTYLLSRAGVTGAENRAALPLNHLVAKLKEYNAAPPLQGFGISAPDQVKAAIDAGAAGAISGSAIVKIIEQHINEPEKMLAALKVFVQPMKAATRS [P28A] | 2.5 | 6.3 |  | 2.2 kcal/mol and 4.1 kcal/mol |  |  |  |  |  | 
MERYESLFAQLKERKEGAFVPFVTLGDPGIEQSLKIIDTLIEAGADALELGIPFSDPLADGPTIQNATLRAFAAGVTPAQCFEMLALIRQKHPTIPIGLLMYANLVFNKGIDEFYAQCEKVGVDSVLVADVGVEESAPFRQAALRHNVAPIFICPPNADDDLLRQIASYGRGYTYLLSRAGVTGAENRAALPLNHLVAKLKEYNAAPPLQGFGISAPDQVKAAIDAGAAGAISGSAIVKIIEQHINEPEKMLAALKVFVQPMKAATRS [P132G] | 0.6 | 8.2 |  | 3.6 kcal/mol and 4.6 kcal/mol | 51.8 | -2.3 | 5.1 | 117 | 0.78 | 5.1
